Data as given in patent publication US20200055958A1.

Molecular target: VEGF-A (human) (UniProt P15692)
Experiment: cell-based or functional assay

Sequence of VEGF-A (human) (P15692 other isoform, or with tags, fused parts or gaps limits assumed): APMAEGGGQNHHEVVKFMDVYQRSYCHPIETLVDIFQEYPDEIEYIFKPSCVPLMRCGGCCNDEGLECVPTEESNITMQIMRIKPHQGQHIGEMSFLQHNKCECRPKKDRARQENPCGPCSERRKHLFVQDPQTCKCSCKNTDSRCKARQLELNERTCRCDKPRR

IC50, VEGF-dependent HUVEC cell growth assay (MTS): 190 pM
Substance: positive control, VEGFR1 ECD D2 and VEGFR2 ECD D3 fused C-terminally with IgG1 Fc fragment (Fc fusion)
